Where a chain is given by its changes, count along the chain named.

These results are taken from patent US20210032352A1 (ANTERA THERAPEUTICS, published 2021).

For one assay, the target named is T1, 85BSA (Bos taurus, UniProt P02769).
T1 construct: also called bovine serum albumin
Put plainly: ELISA of the IgG on hLRP6, mLRP6, mLRP5, Fc and BSA. On the technique in general: ELISA stands for enzyme-linked immunosorbent assay.

Assay [1] deals with T2, mouse LRP6 ECD, Fc-tagged (mouse, UniProt O88572 20-1370).
T2 construct: extracellular domain; Bought; not shown: Fc tag of the purchased fusion
T2 sequence (looked up): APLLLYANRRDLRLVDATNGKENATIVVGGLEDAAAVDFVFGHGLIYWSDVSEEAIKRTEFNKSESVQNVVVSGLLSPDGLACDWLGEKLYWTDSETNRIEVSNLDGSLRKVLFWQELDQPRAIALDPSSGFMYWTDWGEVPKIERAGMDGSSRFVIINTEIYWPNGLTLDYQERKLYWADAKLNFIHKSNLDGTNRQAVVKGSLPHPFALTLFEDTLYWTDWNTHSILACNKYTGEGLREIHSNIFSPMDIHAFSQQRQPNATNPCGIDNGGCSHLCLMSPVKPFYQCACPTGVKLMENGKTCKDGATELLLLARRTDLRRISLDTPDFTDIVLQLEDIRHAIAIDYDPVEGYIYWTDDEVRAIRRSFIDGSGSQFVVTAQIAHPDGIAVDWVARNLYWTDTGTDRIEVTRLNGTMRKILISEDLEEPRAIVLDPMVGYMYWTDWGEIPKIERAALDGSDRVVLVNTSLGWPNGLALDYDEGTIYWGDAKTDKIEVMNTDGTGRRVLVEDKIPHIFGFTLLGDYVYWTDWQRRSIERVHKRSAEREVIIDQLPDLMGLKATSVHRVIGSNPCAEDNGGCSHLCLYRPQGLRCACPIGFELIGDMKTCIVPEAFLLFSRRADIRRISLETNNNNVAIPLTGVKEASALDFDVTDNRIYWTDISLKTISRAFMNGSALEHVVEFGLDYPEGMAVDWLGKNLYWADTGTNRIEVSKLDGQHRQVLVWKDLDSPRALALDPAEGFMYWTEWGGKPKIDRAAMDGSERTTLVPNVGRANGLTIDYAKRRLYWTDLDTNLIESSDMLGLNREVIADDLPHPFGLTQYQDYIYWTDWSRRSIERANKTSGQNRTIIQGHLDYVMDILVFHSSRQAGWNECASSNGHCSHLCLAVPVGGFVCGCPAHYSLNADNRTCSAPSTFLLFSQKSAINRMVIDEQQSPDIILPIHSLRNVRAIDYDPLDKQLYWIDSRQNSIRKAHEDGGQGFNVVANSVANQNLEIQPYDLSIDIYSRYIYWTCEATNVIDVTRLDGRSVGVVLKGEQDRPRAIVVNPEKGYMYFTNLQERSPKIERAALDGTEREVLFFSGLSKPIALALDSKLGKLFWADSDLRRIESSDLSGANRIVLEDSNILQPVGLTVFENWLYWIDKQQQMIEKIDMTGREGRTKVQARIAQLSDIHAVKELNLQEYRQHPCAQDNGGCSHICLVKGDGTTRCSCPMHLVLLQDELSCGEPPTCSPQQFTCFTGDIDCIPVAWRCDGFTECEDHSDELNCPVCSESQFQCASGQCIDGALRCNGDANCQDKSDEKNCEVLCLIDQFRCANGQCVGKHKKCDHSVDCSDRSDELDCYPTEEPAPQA
The description is as above.

Assay [2] has as its target T3, mouse LRP5 ECD, Fc-tagged (mouse, UniProt Q91VN0 31-1383).
T3 construct: extracellular domain; Bought; not shown: Fc tag of the purchased fusion
T3 sequence (looked up): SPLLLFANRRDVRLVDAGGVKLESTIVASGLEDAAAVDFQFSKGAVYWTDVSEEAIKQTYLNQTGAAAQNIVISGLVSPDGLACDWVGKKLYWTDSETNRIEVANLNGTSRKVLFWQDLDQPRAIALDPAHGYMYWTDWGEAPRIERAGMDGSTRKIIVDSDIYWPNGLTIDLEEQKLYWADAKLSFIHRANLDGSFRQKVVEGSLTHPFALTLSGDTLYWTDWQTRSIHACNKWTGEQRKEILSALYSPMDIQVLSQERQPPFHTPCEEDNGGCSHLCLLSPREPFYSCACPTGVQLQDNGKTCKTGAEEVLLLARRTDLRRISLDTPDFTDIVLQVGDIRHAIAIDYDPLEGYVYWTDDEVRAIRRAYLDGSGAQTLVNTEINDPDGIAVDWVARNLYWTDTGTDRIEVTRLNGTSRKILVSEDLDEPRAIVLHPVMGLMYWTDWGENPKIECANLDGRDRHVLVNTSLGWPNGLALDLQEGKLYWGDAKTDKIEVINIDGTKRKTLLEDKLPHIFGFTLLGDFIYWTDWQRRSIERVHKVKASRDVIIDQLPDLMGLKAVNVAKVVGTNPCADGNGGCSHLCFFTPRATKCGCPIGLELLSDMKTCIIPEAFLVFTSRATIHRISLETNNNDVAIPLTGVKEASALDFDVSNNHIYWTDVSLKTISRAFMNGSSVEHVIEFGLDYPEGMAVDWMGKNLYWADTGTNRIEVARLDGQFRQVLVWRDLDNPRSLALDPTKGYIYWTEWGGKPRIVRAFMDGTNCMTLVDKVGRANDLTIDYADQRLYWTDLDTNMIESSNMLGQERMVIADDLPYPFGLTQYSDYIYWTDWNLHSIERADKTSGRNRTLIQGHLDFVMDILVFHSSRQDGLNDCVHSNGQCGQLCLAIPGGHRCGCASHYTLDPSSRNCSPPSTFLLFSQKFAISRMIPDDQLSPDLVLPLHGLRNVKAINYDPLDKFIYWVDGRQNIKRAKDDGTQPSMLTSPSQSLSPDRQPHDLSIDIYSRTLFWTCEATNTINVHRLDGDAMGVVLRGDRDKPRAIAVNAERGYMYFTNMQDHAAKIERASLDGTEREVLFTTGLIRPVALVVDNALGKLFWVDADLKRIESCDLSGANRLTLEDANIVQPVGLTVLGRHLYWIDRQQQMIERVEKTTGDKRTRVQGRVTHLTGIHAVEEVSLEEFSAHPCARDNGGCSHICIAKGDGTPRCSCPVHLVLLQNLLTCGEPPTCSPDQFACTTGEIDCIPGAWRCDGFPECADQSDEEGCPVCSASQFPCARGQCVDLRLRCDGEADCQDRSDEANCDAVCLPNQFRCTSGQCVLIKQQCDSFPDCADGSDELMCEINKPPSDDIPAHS
The description is as above.

The target in a further assay is T4, FZD5 CRD, Fc-tagged (human, UniProt Q13467 27-167).
T4 construct: domain: CRD; Bought; also called FZD5 ECD; not shown: Fc tag of the purchased fusion
T4 sequence (looked up): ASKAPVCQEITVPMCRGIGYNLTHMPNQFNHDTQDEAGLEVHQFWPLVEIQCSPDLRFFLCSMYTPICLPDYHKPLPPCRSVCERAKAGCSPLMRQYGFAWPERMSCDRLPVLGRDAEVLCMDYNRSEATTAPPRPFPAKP
Put plainly: kinetic table of the Fab; KD marked '**…'; the printed KD is not kd/ka of the same column; method not named for this figure.

The target in a further assay is FZD7 CRD, Fc-tagged (human, UniProt O75084 33-185). The description is as above.
Another assay addresses T5, FZD2 CRD, Fc-tagged (human, UniProt Q14332 24-190).
T5 construct: domain: CRD; Bought; not shown: Fc tag of the purchased fusion
The assay is described as above.

The target of another assay is T6, FZD1 CRD, Fc-tagged (human, UniProt Q9UP38 70-250).
T6 construct: domain: CRD; Bought; not shown: Fc tag of the purchased fusion
The description is as above.

A further assay concerns the target T7, FZD8 CRD, Fc-tagged (human, UniProt Q9H461 28-158).
T7 construct: domain: CRD; Bought; not shown: Fc tag of the purchased fusion
T7 sequence (looked up): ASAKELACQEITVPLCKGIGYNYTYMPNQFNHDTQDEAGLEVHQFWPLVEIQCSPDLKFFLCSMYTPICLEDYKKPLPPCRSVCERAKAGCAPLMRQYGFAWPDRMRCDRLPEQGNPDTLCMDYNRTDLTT
The description is as above.

T1 sequence (P02769 25-607 limits assumed): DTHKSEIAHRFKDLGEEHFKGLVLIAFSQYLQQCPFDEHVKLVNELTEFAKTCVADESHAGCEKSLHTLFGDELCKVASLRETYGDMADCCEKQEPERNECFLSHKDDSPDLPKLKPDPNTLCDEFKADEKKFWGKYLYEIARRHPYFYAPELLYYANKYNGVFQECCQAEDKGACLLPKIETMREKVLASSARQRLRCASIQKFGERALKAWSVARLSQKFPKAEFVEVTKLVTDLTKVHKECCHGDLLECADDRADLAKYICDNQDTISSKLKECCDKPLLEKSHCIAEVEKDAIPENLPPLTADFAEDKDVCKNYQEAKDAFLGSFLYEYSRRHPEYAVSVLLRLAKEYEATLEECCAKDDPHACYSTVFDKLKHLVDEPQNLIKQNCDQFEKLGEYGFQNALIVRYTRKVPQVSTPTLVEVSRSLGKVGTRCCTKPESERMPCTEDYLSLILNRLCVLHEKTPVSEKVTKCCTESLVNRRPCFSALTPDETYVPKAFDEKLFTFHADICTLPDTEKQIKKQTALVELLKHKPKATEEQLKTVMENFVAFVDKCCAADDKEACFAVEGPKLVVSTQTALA
T6 sequence (Q9UP38 70-250): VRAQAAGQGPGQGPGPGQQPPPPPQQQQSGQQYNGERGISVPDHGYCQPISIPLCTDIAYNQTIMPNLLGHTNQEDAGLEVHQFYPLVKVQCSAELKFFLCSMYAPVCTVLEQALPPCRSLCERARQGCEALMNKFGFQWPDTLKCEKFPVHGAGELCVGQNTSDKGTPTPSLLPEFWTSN

B1: LRP6 antibody 2539 (antibody, V domains shown)
VH: EVQLVESGGGLVQPGGSLRLSCAASGFNISYSSIHWVRQAPGKGLEWVAYISSYYGYTYYADSVKGRFTISADTSKNTAYLQMNSLRAEDTAVYYCARAHYFPWAGAMDYWGQGTLVTVSS
VL: DIQMTQSPSSLSASVGDRVTITCRASQSVSSAVAWYQQKPGKAPKLLIYSASSLYSGVPSRFSGSRSGTDFTLTISSLQPEDFATYYCQQYSWGPFTFGQGTKVEIK
notes: also called L6^3
On to B1, for which the binding result with 85BSA is given as “no binding”; in assay [1], “binds”; in assay [2], “no binding”.

B2: LRP6 antibody 2542 (antibody, V domains shown)
VH: EVQLVESGGGLVQPGGSLRLSCAASGFNISSYYIHWVRQAPGKGLEWVASIYSSYGYTSYADSVKGRFTISADTSKNTAYLQMNSLRAEDTAVYYCARTVRGSKKPYFSGWAMDYWGQGTLVTVSS
VL: DIQMTQSPSSLSASVGDRVTITCRASQSVSSAVAWYQQKPGKAPKLLIYSASSLYSGVPSRFSGSRSGTDFTLTISSLQPEDFATYYCQQYYWPITFGQGTKVEIK
For the molecule B2, the binding result in the assay with 85BSA is given as “no binding”; in assay [1] it was “binds”; in assay [2], “no binding”.

B3: F^P - Fab (Fab, V domains shown)
VH: EVQLVESGGGLVQPGGSLRLSCAASGFNIGSSSIHWVRQAPGKGLEWVASIYSAFASTSYADSVKGRFTISADTSKNTAYLQMNSLRAEDTAVYYCARYHFPFGFALDYWGQGTLVTVSS
VL: B2 VL with Y91G, Y92V, W93Y, P94L, I95F
As a reminder, the Kd is the constant that tells how readily two partners part at equilibrium. Consider B3, for which the Kd in the assay with FZD5 CRD, Fc-tagged is 0.11 nM; with FZD7 CRD, Fc-tagged, 0.142 nM; in the assay with FZD2 CRD, Fc-tagged, 0.126 nM; with FZD1 CRD, Fc-tagged, 0.177 nM; with FZD8 CRD, Fc-tagged, 0.109 nM.
